For this assay, the target named is homo-oligomeric archaeal chaperonin from Methanococcus maripaludis (MmCpn) (Methanococcus maripaludis). Put plainly: cryo-EM structure; MmCpn 4 uM mixed on ice with 32 uM ATP (1 hexadecamer to 8 ATP), frozen immediately; single-particle reconstruction with D8 symmetry (also C1), 3.9 Å; focused classification of rings and subunits.

The stoichiometry N is the number of molecules, sites or subunits per partner or assembly. As to “homo-oligomeric archaeal chaperonin from Methanococcus maripaludis (MmCpn) (natural protein)”, the stoichiometry N is 16 subunits.

Values taken from paper PMC8346469.
